The text below walks through data of paper PMC7948500, “Comparative interactomes of HSF1 in stress and disease reveal a role for CTCF in HSF1-mediated gene regulation” (The Journal of Biological Chemistry, 2020).

This assay deals with T1, His6-tagged CTCF (human, UniProt P49711 1-727).
T1 construct: CTCF, human, codon-optimized for bacterial expression, in pET-15b; printed both as CTCF-His and His-CTCF; pET-15b usually adds an N-terminal His tag; also called His-CTCF; CTCF-His; source: E. coli BL21 (DE3), purified (Ni-NTA agarose)
T1 sequence (looked up): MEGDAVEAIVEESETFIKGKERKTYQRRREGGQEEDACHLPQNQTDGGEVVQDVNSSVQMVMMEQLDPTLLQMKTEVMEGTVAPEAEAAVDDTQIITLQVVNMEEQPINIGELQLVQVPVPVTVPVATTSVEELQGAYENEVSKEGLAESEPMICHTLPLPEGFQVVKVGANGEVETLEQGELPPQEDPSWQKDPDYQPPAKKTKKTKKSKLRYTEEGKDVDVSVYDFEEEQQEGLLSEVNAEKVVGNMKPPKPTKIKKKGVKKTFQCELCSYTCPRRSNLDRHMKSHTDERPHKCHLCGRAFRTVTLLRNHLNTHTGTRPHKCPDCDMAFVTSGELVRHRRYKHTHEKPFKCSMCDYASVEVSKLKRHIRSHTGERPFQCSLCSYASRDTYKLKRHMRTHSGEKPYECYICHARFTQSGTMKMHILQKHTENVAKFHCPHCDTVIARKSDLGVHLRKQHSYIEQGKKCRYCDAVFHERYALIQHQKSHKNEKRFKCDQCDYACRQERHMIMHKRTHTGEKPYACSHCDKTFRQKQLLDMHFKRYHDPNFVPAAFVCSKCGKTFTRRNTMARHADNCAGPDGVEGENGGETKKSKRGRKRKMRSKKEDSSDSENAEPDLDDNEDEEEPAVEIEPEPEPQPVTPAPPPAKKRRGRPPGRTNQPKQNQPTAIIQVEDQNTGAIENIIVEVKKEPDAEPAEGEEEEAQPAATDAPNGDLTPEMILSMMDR
The assay is described as follows: pull-down; in vitro STREP pull-down: 5 nM purified His-CTCF alone or with STREP-HSF1 in 1 ml Buffer NP (50 mM NaH2PO4, 300 mM NaCl, pH 8.0), 1 h at 4 °C, MagStrep type 3 XT resin, five washes, eluted with 25 mM desthiobiotin; immunoblot. Particulars: both partners purified. On the technique in general: Immunoblotting shows a protein as a band on a membrane.

B1: STREP-HSF1 (natural protein, human, UniProt Q00613 1-529, looked up)
chain: MDLPVGPGAAGPSNVPAFLTKLWTLVSDPDTDALICWSPSGNSFHVFDQGQFAKEVLPKYFKHNNMASFVRQLNMYGFRKVVHIEQGGLVKPERDDTEFQHPCFLRGQEQLLENIKRKVTSVSTLKSEDIKIRQDSVTKLLTDVQLMKGKQECMDSKLLAMKHENEALWREVASLRQKHAQQQKVVNKLIQFLISLVQSNRILGVKRKIPLMLNDSGSAHSMPKYSRQFSLEHVHGSGPYSAPSPAYSSSSLYAPDAVASSGPIISDITELAPASPMASPGGSIDERPLSSSPLVRVKEEPPSPPQSPRVEEASPGRPSSVDTLLSPTALIDSILRESEPAPASVTALTDARGHTDTEGRPPSPPPTSTPEKCLSVACLDKNELSDHLDAMDSNLDNLQTMLSSHGFSVDTSALLDLFSPSVTVPDMSLPDLDSSLASIQELLSPQEPPRPPEAENSSPDSGKQLVHYTAQPLFLLDPGSVDTGSNDLPVLFELGEGSYFSEGDGFAEDPTISLLTGSEPPKAKDPTVS
notes: HSF1, human, codon-optimized for bacterial expression; also called STREP-tagged HSF1; source: E. coli BL21 (DE3), purified (StrepTrap column)
In the case of B1, the binding result is given as “binds”.
